{
  "source": "paper PMC10705692",
  "about": "“Structural dynamics of GluK2 kainate receptors in apo and partial agonist bound states” (Research Square, 2023)",
  "biological_target": "the molecule itself",
  "assay": "cryo-EM structure; purified GluK2 EM in DDM micelles without ligand (apo; residual glutamate washed out on Strep-Tactin), 50 mM Tris-Cl pH 8.0, 150 mM NaCl, 1 mM DDM, ~4 mg/ml; single-particle cryo-EM, C2 imposed, 3.0 Å",
  "data": [
    {"protein": "full-length rat GluK2 KAR, cryo-EM construct (GluK2 EM) (receptor, UniProt P42260 32-908, looked up, N-glycosylation at Asn 67, 73, 275, 378, 412, 423, 430, 546 and 751 (LC-MS/MS of the purified protein), Glutamate receptor ionotropic, kainate 2 (GluK2), rat, full length; RNA-edited at position 567 (I to V), with C576V and C595S; followed by a human rhinovirus 3C protease site and a Twin-Strep tag at the C-terminus; Homotetramer (subunits A-D); No cleavage of the 3C site is described; also called homomeric rat GluK2; GRIK2_RAT; source: Sf9 insect cells (baculovirus, EarlyBac), solubilised in DDM, …) TTHVLRFGGIFEYVESGPMGAEELAFRFAVNTINRNRTLLPNTTLTYDTQKINLYDSFEASKKACDQLSLGVAAIFGPSHSSSANAVQSICNALGVPHIQTRWKHQVSDNKDSFYVSLYPDFSSLSRAILDLVQFFKWKTVTVVYDDSTGLIRLQELIKAPSRYNLRLKIRQLPADTKDAKPLLKEMKRGKEFHVIFDCSHEMAAGILKQALAMGMMTEYYHYIFTTLDLFALDVEPYRYSGVNMTGFRILNTENTQVSSIIEKWSMERLQAPPKPDSGLLDGFMTTDAALMYDAVHVVSVAVQQFPQMTVSSLQCNRHKPWRFGTRFMSLIKEAHWEGLTGRITFNKTNGLRTDFDLDVISLKEEGLEKIGTWDPASGLNMTESQKGKPANITDSLSNRSLIVTTILEEPYVLFKKSDKPLYGNDRFEGYCIDLLRELSTILGFTYEIRLVEDGKYGAQDDVNGQWNGMVRELIDHKADLAVAPLAITYVREKVIDFSKPFMTLGISILYRKPNGTNPGVFSFLNPLSPDIWMYVLLAYLGVSVVLFVIARFSPYEWYNPHPSNPDSDVVENNFTLLNSFWFGVGALMQQGSELMPKALSTRIVGGIWWFFTLIIISSYTANLAAFLTVERMESPIDSADDLAKQTKIEYGAVEDGATMTFFKKSKISTYDKMWAFMSSRRQSVLVKSNEEGIQRVLTSDYAFLMESTTIEFVTQRNCNLTQIGGLIDSKGYGVGTPMGSPYRDKITIAILQLQEEGKLHMMKEKWWRGNGCPEEESKEASALGVQNIGGIFIVLAAGLVLSVFVAVGEFLYKSKKNAQLEKRSFCSAMVEELRMSLKCQRRLKHKPQAPVIVKTEEVINMHTFNDRRLPGKETMA", "values": [
      {"measurement": "stoichiometry N", "value": 4}
    ]}
  ]
}
